Data taken from publication PMC10700433.
One block for each binder: values may come before it.

What was measured:
[1] = target: ATOR-1017 (evunzekibart) (human); assay: BLI; Octet RED96; antibodies captured on FABG2 biosensor tips, recombinant Fcγ receptors in solution at suitable concentration ranges; association and dissociation at physiological pH; settings: remark: other sources report otherwise
[2] = target: human 4-1BB on activated primary human immune cells (human (endogenous in primary PBMC)) (UniProt Q07011)
Sequence of human 4-1BB on activated primary human immune cells (human (endogenous in primary PBMC)) (Q07011 24-255): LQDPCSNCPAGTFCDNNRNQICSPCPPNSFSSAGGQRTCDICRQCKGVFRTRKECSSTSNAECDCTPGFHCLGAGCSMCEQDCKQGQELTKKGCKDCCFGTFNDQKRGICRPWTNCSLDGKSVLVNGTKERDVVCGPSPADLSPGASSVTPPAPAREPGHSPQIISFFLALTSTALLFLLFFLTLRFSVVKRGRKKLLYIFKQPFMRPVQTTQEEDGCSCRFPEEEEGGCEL

Kd [1]: 1000 nM
B1: human FcγRIIa, P12318 34-317 (receptor)
chain: QAAAPPKAVLKLEPPWINVLQEDSVTLTCQGARSPESDSIQWFHNGNLIPTHTQPSYRFKANNNDSGEYTCQTGQTSLSDPVHLTVLSEWLVLQTPHLEFQEGETIMLRCHSWKDKPLVKVTFFQNGKSQKFSHLDPTFSIPQANHSHSGDYHCTGNIGYTLFSSKPVTITVQVPSMGSSSPMG
modifications: here or on the partner: Soluble extracellular domain by convention (UniProt topology); construct limits not printed. Allotype of the recombinant protein not stated in the excerpt: given as H131 (H167 in precursor numbering);

IFNγ production by IL-2 pre-stimulated human NK cells co-cultured with FcγRI-CHO cells, serially diluted ATOR-1017 [2]: 0.1 nM
IFNγ production by anti-CD3-activated human CD8+ T cells co-cultured with FcγRI-CHO cells, 72 h, serially diluted ATOR-1017 [2]: 0.2 nM
B2: ATOR-1017 (evunzekibart) (antibody, V domains shown)
VH: EVQLLESGGGLVQPGGSLRLSCAASGFNFGYSYMSWVRQAPGKGLEWVSSIGSTSSHTYYADSVKGRFTISRDNSKNTLYLQMNSLRAEDTAVYYCARVYSSPGIDYWGQGTLVTVSS
VL: DIQMTQSPSSLSASVGDRVTITCRASQSIGSTLNWYQQKPGKAPKLLIYGASSLQSGVPSRFSGSGSGTDFTLTISSLQPEDFATYYCQQYYTWVPFTFGQGTKLEIK

Kd [1]: 800 nM
B3: human FcγRIIb, P31994 43-310 (receptor)
chain: TPAAPPKAVLKLEPQWINVLQEDSVTLTCRGTHSPESDSIQWFHNGNLIPTHTQPSYRFKANNNDSGEYTCQTGQTSLSDPVHLTVLSEWLVLQTPHLEFQEGETIVLRCHSWKDKPLVKVTFFQNGKSKKFSRSDPNFSIPQANHSHSGDYHCTGNIGYTLYSSKPVTITVQAP
modifications: here or on the partner: soluble ectodomain assumed for BLI

Kd [1]: 200 nM
B4: mouse FcγRI, P26151 25-404 (receptor)
chain: EVVNATKAVITLQPPWVSIFQKENVTLWCEGPHLPGDSSTQWFINGTAVQISTPSYSIPEASFQDSGEYRCQIGSSMPSDPVQLQIHNDWLLLQASRRVLTEGEPLALRCHGWKNKLVYNVVFYRNGKSFQFSSDSEVAILKTNLSHSGIYHCSGTGRHRYTSAGVSITVKELFTTPVLRASVSSPFPEGSLVTLNCETNLLLQRPGLQLHFSFYVGSKILEYRNTSSEYHIARAEREDAGFYWCEVATEDSSVLKRSPELELQVLGPQSSAP
modifications: here or on the partner: soluble ectodomain assumed for BLI
